# Source: IntAct's records for PubMed 17947231
# B1: Calvin cycle protein CP12-2, chloroplastic (Arabidopsis thaliana (Mouse-ear cress)), Q9LZP9 (parent)
# chain: MATIATGLNIATQRVFVTSENRPVCLAGPVHLNNSWNLGSRTTNRMMKLQPIKAAPEGGISDVVEKSIKEAQETCAGDPVSGECVAAWDEVEELSAAASHARDKKKADGSDPLEEYCKDNPETNECRTYDN
# partner: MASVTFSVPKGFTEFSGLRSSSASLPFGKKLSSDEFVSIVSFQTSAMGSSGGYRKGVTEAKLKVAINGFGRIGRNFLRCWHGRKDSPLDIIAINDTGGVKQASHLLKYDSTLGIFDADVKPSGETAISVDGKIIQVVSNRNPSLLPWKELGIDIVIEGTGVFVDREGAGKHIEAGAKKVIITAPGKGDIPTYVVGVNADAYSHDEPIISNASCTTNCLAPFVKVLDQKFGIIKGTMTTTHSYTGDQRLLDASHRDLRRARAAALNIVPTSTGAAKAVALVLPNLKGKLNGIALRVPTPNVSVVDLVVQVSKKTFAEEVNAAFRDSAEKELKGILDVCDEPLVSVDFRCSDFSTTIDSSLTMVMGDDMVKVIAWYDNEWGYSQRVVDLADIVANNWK
# Variants of: B1
# Conditions: with GAPA1, P25856
row,effect of a mutation on the interaction,Variant
1,disrupting interaction,MATIATGLNIATQRVFVTSENRPVCLAGPVHLNNSWNLGSRTTNRMMKLQPIKAAPEGGISDVVEKSIKEAQETCAGDPVSGECVAAWDEVEELSAAASHARDKKKADGSDPLEEYCKDNPETNESRTYDN [C126S]
